Reference: publication PMC11059001
pKd: −log10 of the molar value.

Tests used:
complement C1q (human) [1] = biological target: complement C1q (human) (UniProt P02745); test: MST; fluorescently labelled C1q (RED-NHS) 40 nM; TsCRT, TsCRT^Δ, mutants or P^TsCRT gradient-diluted; 50 mM Hepes, 150 mM NaCl, 2 mM CaCl2, 0.05% Tween 20, pH 7.4; Monolith NT.115, LED power 20%, MST power 50%
complement C1q (human) [2] = biological target: complement C1q (human) (UniProt P02745); test: MST; with 20 uM TsCRT^Δ P143A/E144A competitor
complement C1q (human) [3] = biological target: complement C1q (human) (UniProt P02745); test: MST; with 20 uM TsCRT^Δ H46A/K47A/D49A competitor
complement C1q (human) [4] = biological target: complement C1q (human) (UniProt P02745); test: MST; with 20 uM TsCRT^Δ I140A/G142A competitor
complement C1q (human) [5] = biological target: complement C1q (human) (UniProt P02745); test: MST; competitive binding: IgG with fluorescently labelled C1q (40 nM) in the presence of 20 µM TsCRT^Δ, a mutant or P^TsCRT; 50 mM Hepes, 150 mM NaCl, 2 mM CaCl2, 0.05% Tween 20, pH 7.4; LED power 60%, MST power 50%
complement C1q (human) [6] = biological target: complement C1q (human) (UniProt P02745); test: MST; IgG incubated with fluorescently labelled C1q (40 nM) alone, no competitor; 50 mM Hepes, 150 mM NaCl, 2 mM CaCl2, 0.05% Tween 20, pH 7.4; LED power 60%, MST power 50%

Sequence of complement C1q (human) (P02745 23-245, chain 1 of 3): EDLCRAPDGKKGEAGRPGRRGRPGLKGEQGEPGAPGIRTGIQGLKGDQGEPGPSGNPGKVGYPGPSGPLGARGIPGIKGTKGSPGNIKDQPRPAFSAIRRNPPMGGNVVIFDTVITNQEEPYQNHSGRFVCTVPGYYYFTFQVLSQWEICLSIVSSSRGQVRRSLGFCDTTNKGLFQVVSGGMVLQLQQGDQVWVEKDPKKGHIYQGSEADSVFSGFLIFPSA
Sequence of complement C1q (human) (P02746 28-253, chain 2 of 3, further chain): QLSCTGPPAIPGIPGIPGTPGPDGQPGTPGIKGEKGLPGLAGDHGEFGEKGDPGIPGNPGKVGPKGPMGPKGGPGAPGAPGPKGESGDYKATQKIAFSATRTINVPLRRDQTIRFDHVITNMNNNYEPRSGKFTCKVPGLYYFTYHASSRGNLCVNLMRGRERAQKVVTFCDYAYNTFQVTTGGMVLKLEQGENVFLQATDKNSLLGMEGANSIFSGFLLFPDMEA
Sequence of complement C1q (human) (P02747 29-245, chain 3 of 3, further chain): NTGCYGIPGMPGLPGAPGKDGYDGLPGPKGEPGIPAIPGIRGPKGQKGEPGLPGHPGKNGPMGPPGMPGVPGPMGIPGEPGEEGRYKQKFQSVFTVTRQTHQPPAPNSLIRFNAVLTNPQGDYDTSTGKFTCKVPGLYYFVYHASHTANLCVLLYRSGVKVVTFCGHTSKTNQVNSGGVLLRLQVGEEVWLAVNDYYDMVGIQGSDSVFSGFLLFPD

Trichinella spiralis calreticulin, full-length (natural protein)
pKd (complement C1q (human) [1]): 3.59

TsCRT^Δ mutant D129A (domain or fragment)
pKd (complement C1q (human) [1]): 3.91

TsCRT^Δ mutant H46A/K47A/D49A (domain or fragment)
pKd (complement C1q (human) [1]): 4.26

TsCRT^Δ mutant I140A/G142A (domain or fragment)
pKd (complement C1q (human) [1]): 4.26

TsCRT^Δ mutant P143A/E144A (domain or fragment)
pKd (complement C1q (human) [1]): 4.18

human IgG
pKd (complement C1q (human) [2]): 5.38 | pKd (complement C1q (human) [3]): 5.40 | pKd (complement C1q (human) [4]): 5.26

human IgG (antibody)
KD of C1q-IgG with P^TsCRT (20 µM) (complement C1q (human) [5]): 172 µM | KD of C1q-IgG with TsCRT^Δ (20 µM) (complement C1q (human) [5]): 409 µM | KD of C1q-IgG with the mutant D129A (complement C1q (human) [5]): 0.32 µM | pKd (complement C1q (human) [6]): 6.85

truncated Trichinella spiralis calreticulin TsCRT^Δ (22-209, GSG linker, 305-364) (domain or fragment)
pKd (complement C1q (human) [1]): 5.04
